T1: CD25 (Homo sapiens (Human), UniProt P01589 22-240)
T1 construct: also called IL-2R alpha chain
T1 sequence: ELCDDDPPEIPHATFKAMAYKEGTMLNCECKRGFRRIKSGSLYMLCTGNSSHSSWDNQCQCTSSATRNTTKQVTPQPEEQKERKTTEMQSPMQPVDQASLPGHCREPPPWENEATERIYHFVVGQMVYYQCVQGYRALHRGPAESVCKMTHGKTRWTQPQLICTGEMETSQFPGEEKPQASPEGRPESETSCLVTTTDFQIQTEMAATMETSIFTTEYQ

T2: mouse PD-1 on cells (mouse, UniProt Q02242 25-288)
T2 sequence (looked up): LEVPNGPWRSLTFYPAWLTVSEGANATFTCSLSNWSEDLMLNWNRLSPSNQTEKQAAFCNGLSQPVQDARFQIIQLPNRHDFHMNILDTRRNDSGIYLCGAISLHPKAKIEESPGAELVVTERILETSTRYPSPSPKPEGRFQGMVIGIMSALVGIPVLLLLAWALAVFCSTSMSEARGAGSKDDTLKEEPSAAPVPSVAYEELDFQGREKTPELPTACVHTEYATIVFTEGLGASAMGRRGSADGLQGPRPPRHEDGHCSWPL

T3: recombinant mouse MAdCAM-1 (mouse, UniProt Q61826 22-365, limits assumed)
T3 construct: also called mMAdCAM-1; mouse MAdCAM-Fc
T3 sequence (looked up): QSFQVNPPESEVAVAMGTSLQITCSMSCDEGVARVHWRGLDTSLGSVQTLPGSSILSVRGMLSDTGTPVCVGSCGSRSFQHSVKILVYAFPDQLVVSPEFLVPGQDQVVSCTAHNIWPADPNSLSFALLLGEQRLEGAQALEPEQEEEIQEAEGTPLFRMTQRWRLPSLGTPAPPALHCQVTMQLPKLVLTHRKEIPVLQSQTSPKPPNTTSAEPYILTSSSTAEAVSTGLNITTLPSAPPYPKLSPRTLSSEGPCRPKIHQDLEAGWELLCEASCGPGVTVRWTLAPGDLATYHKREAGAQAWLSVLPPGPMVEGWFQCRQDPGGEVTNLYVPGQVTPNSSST

T4: mouse MAdCAM expressed on cells (mouse, UniProt Q61826 22-405)
T4 construct: whole, on cells
T4 sequence (looked up): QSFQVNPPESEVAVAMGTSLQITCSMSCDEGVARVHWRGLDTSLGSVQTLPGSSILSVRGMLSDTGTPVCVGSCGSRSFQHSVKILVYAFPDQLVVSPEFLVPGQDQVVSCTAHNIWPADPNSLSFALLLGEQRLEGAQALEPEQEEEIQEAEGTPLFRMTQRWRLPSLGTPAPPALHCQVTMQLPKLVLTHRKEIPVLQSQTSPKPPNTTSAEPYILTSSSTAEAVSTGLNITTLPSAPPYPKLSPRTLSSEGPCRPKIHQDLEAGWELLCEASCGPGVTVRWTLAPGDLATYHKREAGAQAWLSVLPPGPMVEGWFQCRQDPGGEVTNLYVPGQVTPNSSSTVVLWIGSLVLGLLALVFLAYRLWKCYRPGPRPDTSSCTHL

T5: human MAdCAM expressed on cells (human, UniProt Q13477 19-382)
T5 construct: whole, on cells; also called MADCAM1
T5 sequence (looked up): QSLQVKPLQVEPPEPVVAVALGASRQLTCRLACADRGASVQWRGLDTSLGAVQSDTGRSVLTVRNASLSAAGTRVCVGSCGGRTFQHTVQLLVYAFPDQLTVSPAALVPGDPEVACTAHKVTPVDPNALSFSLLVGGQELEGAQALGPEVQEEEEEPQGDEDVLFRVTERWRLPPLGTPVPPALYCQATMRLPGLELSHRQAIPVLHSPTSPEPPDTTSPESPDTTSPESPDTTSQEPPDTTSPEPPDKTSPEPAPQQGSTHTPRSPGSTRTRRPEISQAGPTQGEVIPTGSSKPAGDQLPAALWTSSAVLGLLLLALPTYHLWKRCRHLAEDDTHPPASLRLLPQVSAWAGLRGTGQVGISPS


Tests used:
[1] = biological target: T1, CD25; experiment: ELISA, CD25 coated plate
[2] = biological target: T2, mouse PD-1 on cells; experiment: cell-based or functional assay
[3] = biological target: T3, recombinant mouse MAdCAM-1; experiment: Octet
[4] = biological target: T4, mouse MAdCAM expressed on cells; experiment: cell binding
[5] = biological target: T5, human MAdCAM expressed on cells; experiment: cell binding

| Binder | EC50 [1] [nM] | Mouse agonist-CTG: IC50, IgG1 [2] [nM] | other results |
| --- | --- | --- | --- |
| human IL-2 mutein fused N-terminally to human IgG1 Fc domain (SEQ ID NO: 57) (Fc fusion, also called IL-2 N88D V69A, Q74P-G4Sx4-Fc) APTSSSTKKTQLQLEHLLLDLQMILNGINNYKNPKLTRMLTFKFYMPKKATELKHLQCLEEELKPLEEALNLAPSKNFHLRPRDLISDINVIVLELKGSETTFMCEYADETATIVEFLNRWITFSQSIISTLTGGGGSGGGGSGGGGSGGGGSDKTHTCPPCPAPEAAGAPSVFLFPPKPKDTLMISRTPEVTCVVVDVSHEDPEVKFNWYVDGVEVHNAKTKPREEQYNSTYRVVSVLTVLHQDWLNGKEYKCKVSNKALPAPIEKTISKAKGQPREPQVYTLPPSREEMTKNQVSLTCLVKGFYPSDIAVEWESNGQPENNYKTTPPVLDSDGSFFLYSKLTVDKSRWQQGNVFSCSVMHEALHNHYTQKSLSLSPG | < 1 | – | – |
| IL-2 mutein SEQ ID NO: 55 (Fc fusion, also called IL-2 L80I N88D V69A, C125S Q74P-G4Sx4-Fc) APTSSSTKKTQLQLEHLLLDLQMILNGINNYKNPKLTRMLTFKFYMPKKATELKHLQCLEEELKPLEEALNLAPSKNFHIRPRDLISDINVIVLELKGSETTFMCEYADETATIVEFLNRWITFSQSIISTLTGGGGSGGGGSGGGGSGGGGSDKTHTCPPCPAPEAAGAPSVFLFPPKPKDTLMISRTPEVTCVVVDVSHEDPEVKFNWYVDGVEVHNAKTKPREEQYNSTYRVVSVLTVLHQDWLNGKEYKCKVSNKALPAPIEKTISKAKGQPREPQVYTLPPSREEMTKNQVSLTCLVKGFYPSDIAVEWESNGQPENNYKTTPPVLDSDGSFFLYSKLTVDKSRWQQGNVFSCSVMHEALHNHYTQKSLSLSPG | < 1 | – | – |
| IL-2 mutein SEQ ID NO: 54 (Fc fusion, also called IL-2 L56I N88D V69A, Q74P, C125S-G4Sx4-Fc) APTSSSTKKTQLQLEHLLLDLQMILNGINNYKNPKLTRMLTFKFYMPKKATELKHIQCLEEELKPLEEALNLAPSKNFHLRPRDLISDINVIVLELKGSETTFMCEYADETATIVEFLNRWITFSQSIISTLTGGGGSGGGGSGGGGSGGGGSDKTHTCPPCPAPEAAGAPSVFLFPPKPKDTLMISRTPEVTCVVVDVSHEDPEVKFNWYVDGVEVHNAKTKPREEQYNSTYRVVSVLTVLHQDWLNGKEYKCKVSNKALPAPIEKTISKAKGQPREPQVYTLPPSREEMTKNQVSLTCLVKGFYPSDIAVEWESNGQPENNYKTTPPVLDSDGSFFLYSKLTVDKSRWQQGNVFSCSVMHEALHNHYTQKSLSLSPG | < 1 | – | – |
| IL-2 mutein SEQ ID NO: 53 (Fc fusion, also called IL-2 L53I N88D V69A, Q74P, C125S-G4Sx4-Fc) APTSSSTKKTQLQLEHLLLDLQMILNGINNYKNPKLTRMLTFKFYMPKKATEIKHLQCLEEELKPLEEALNLAPSKNFHLRPRDLISDINVIVLELKGSETTFMCEYADETATIVEFLNRWITFSQSIISTLTGGGGSGGGGSGGGGSGGGGSDKTHTCPPCPAPEAAGAPSVFLFPPKPKDTLMISRTPEVTCVVVDVSHEDPEVKFNWYVDGVEVHNAKTKPREEQYNSTYRVVSVLTVLHQDWLNGKEYKCKVSNKALPAPIEKTISKAKGQPREPQVYTLPPSREEMTKNQVSLTCLVKGFYPSDIAVEWESNGQPENNYKTTPPVLDSDGSFFLYSKLTVDKSRWQQGNVFSCSVMHEALHNHYTQKSLSLSPG | < 1 | – | – |
| MAdCAM Antibody Table 2 Clone 65 (antibody, human IgG1, V domains shown) VH: QVQLVQSGAEVKKPGASVKVSCKASGYTFTSYDINWVRQAPGQGLEWMGWMNPNSGNTGYAQKFQGRVTMTRDTSTSTVYMELSSLRSEDTAVYYCAKDSDYSNLLWDYWGQGTLVTVSS VL: DIQMTQSPSSLSASVGDRVTITCRASQDITNDLGWYQQKPGKAPKLLIYQASSLESGVPSRFSGSGSGTDFTLTISSLQPEDFATYYCQQSYTIPLTFGQGTKVEIK | – | – | binding result [3]: no binding; binding result [4]: no binding; binding result [5]: binds |
| PD1AB6 (antibody, IgG1, V domains shown) VH: EVQLLESGGGLVQPGGSLRLSCAASGFTFSNYPMHWVRQAPGKGLEWVALISDDGTNEHYADSVKGRFTISRDNSKNTLYLQMNSLRAEDTAVYYCARDSKFANYYYYYDMDVWGQGTTVTVSS VL: DIQMTQSPSSLSASVGDRVTITCRASQSINNYLSWYQQKPGKAPKLLIYDASNLETGVPSRFSGSGSGTDFTLTISSLQPEDFATYYCQQSYSTPLTFGPGTKVDIK | – | < 10 | – |
| MAdCAM Antibody Table 2 Clone 74 (antibody, human IgG1, V domains shown) VH: QVQLVQSGAEVKKPGASVKVSCKASGYTFTGYYMHWVRQAPGQGLEWMGIINPSGGNTKYAQKFQGRVTMTRDTSTSTVYMELSSLRSEDTAVYYCTTADYYYYMDVWGKGTTVTVSS VL: DIQMTQSPSSLSASVGDRVTITCRASQGISNYLAWYQQKPGKAPKLLIYAASSLQSGVPSRFSGSGSGTDFTLTISSLQPEDFATYYCQQYYSNADFGQGTKVEIK | – | – | binding result [3]: no binding; binding result [4]: no binding; binding result [5]: binds |
| PD1AB7 (antibody, IgG1, V domains shown) VH: QVQLVQSGAEVKKPGASVKVSCKASGYSFTGHYIHWVRQAPGQGLEWMGIINPNGGSTTYAQKLQGRVTMTRDTSTSTVYMELSSLRSEDTAVYYCARGKFDFYGDYVTAFDIWGQGTMVTVSS VL: not shown | – | < 10 | – |
| PD1AB4 (antibody, IgG1, V domains shown) VH: QVQLVQSGAEVKKPGASVKVSCKASGYSFTTYYMHWVRQAPGQGLEWMGIINPSGGSTSYAQKFQGRVTMTRDTSTSTVYMELSSLRSEDTAVYYCASGWVYWGQGTLVTVSS VL: DIQMTQSPSSLSASVGDRVTITCQASRDIKNYLAWYQQKPGKAPKLLIYAASSLQSGVPSRFSGSGSGTDFTLTISSLQPEDFATYYCQQSYSTPPTFGPGTKVDIK | – | < 10 | – |

Further lines, with some results ahead:

| EC50 [1] [nM] | Mouse agonist-CTG: IC50, IgG1 [2] [nM] | Binder | other results |
| --- | --- | --- | --- |
| – | < 10 | PD1AB18 (antibody, IgG1, V domains shown) VH: QVQLVQSGAEVKKPGASVKVSCKASGYTFTDYAMHWVRQAPGQGLEWMGWLNPNSGNTGYAPKFQGRVTMTRDTSTSTVYMELSSLRSEDTAVYYCAAGLFIWGQGTMVTVSS VL: DIQMTQSPSSLSASVGDRVTITCRASQSINRWLAWYQQKPGKAPKLLIYDASSLESGVPSRFSGSGSGTDFTLTISSLQPEDFATYYCQQSYSIPITFGQGTRLEIK | – |
| – | < 10 | PD1AB20 (antibody, IgG1, V domains shown) VH: QVQLVQSGAEVKKPGASVKVSCKASGYTFSDHYMHWVRQAPGQGLEWMGTINPSGGRTSYAQKFQGRVTMTRDTSTSTVYMELSSLRSEDTAVYYCAADNGHASGWLYYYGMDVWGQGTTVTVSS VL: DIQMTQSPSSLSASVGDRVTITCRASQSISNWVAWYQQKPGKAPKLLIYRASTLQSGVPSRFSGSGSGTDFTLTISSLQPEDFATYYCQQSHSLPLTFGPGTKVDIK | – |
| – | < 10 | PD1AB23 (antibody, IgG1, V domains shown) VH: QVQLVQSGAEVKKPGASVKVSCKASGGTFSNYAISWVRQAPGQGLEWMGWMNPNSGNTGYAQKFQGRVTMTRDTSTSTVYMELSSLRSEDTAVYYCARVNYYYYYGMDVWGQGTTVTVSS VL: DIQMTQSPSSLSASVGDRVTITCQASQDISNYLNWYQQKPGKAPKLLIYKASTLKSGVPSRFSGSGSGTDFTLTISSLQPEDFATYYCQQADNLPFTFGPGTKVDIK | – |
| – | < 10 | PD1AB22 (antibody, IgG1, V domains shown) VH: QVQLVQSGAEVKKPGASVKVSCKASGYTFSGYYMHWVRQAPGQGLEWMGVINPSGGSTSYAQKFQGRVTMTRDTSTSTVYMELSSLRSEDTAVYYCAEGFDYWGQGTLVTVSS VL: EIVMTQSPATLSVSPGERATLSCRASQGVGRSLAWYQQKPGQAPRLLIYGASTRATGIPARFSGSGSGTEFTLTISSLQSEDFAVYYCQQYYTTPITFGQGTRLEIK | – |
